Data from patent US7560248 (WISCONSIN ALUMNI RESEARCH FOUNDATION, dated 2009).

B2: ribonuclease A (enzyme, UniProt P61823 27-150, looked up)
chain: KETAAAKFERQHMDSSTSAASSSNYCNQMMKSRNLTKDRCKPVNTFVHESLADVQAVCSQKNVACKNGQTNCYQSYSTMSITDCRETGSSKYPNCAYKTTQANKHIIVACEGNPYVPVHFDASV
notes: also called RNASE A; RNase A

Assays:
[1] = biological target: B2; test: affinity chromatography on RNase A-Sepharose 4B resin
[2] = biological target: T1, wild-type human ribonuclease inhibitor (human, UniProt P13489 2-461, limits assumed); test: as above
T1 construct: Made in E. coli from plasmid pET-RI; also called hRI; wild-type hRI
T1 sequence: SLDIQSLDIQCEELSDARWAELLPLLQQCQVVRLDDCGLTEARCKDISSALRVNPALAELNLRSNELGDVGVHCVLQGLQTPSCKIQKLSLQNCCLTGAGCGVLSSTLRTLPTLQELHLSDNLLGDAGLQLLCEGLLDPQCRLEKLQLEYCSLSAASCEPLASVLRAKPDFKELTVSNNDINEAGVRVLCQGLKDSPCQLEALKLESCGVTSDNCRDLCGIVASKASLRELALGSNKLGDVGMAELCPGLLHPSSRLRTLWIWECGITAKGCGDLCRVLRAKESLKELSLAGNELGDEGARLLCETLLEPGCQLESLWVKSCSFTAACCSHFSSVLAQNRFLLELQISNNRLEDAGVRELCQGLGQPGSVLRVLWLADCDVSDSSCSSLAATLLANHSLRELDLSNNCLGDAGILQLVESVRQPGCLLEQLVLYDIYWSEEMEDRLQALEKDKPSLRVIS

[3] = biological target: T2, C95A/C96A human ribonuclease inhibitor (human, UniProt P13489 2-461, limits assumed); test: as above
T2 construct: also called C95A/C96A hRI
T2 sequence: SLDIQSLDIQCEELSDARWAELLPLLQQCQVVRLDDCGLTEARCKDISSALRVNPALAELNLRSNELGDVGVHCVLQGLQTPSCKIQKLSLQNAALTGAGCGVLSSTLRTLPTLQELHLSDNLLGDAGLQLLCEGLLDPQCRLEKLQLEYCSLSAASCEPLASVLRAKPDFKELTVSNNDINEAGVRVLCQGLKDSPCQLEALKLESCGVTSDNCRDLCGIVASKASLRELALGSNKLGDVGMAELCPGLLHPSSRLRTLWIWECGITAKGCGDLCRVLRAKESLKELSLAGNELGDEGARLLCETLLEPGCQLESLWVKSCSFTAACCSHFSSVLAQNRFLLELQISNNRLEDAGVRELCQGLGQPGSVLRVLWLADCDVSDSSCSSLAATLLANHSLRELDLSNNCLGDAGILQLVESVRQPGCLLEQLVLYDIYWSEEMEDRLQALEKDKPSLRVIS

[4] = biological target: T3, C329A/C330A human ribonuclease inhibitor (human, UniProt P13489 2-461, limits assumed); test: as above
T3 construct: also called C329A/C330A hRI
T3 sequence: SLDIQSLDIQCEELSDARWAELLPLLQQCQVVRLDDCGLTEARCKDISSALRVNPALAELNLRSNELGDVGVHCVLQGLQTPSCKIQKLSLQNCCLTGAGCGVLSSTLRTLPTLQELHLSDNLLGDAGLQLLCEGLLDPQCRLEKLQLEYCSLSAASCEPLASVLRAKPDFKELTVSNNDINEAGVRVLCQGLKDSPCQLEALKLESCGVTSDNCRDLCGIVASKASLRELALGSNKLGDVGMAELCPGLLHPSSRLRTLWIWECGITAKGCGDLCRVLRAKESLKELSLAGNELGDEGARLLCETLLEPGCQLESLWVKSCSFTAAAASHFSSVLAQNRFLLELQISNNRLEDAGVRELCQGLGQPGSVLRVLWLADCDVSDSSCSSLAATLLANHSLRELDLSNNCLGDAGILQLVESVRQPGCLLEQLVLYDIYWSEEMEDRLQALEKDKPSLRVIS

[5] = biological target: T4, C329A human ribonuclease inhibitor (human, UniProt P13489 2-461, limits assumed); test: inhibition of RNase A activity, poly(C) cleavage assay
T4 construct: also called C329A hRI
T4 sequence: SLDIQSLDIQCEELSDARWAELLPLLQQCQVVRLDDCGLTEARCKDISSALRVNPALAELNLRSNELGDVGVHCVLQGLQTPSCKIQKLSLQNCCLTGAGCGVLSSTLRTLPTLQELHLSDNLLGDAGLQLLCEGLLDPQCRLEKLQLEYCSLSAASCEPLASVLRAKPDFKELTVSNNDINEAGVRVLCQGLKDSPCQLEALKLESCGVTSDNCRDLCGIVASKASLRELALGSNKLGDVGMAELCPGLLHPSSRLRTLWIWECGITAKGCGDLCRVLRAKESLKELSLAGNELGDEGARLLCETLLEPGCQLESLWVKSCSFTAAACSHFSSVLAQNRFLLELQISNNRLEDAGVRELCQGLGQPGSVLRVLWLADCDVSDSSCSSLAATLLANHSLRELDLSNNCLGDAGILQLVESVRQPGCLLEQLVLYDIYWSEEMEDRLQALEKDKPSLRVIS
Description: (§1) A solution (101) of 20 mM HEPES-HCl buffer, pH 7.6, containing KCl (50 mM) and RNASE A (80 nM) was added to each of the hRI solutions. The resulting mixtures were incubated at 37° C. for 5 min. The ribonucleolytic activity in each mixture was then assessed by using a spectrophotometric assay for poly(C) cleavage, as described (delCardayre et al., 1995), with [poly(C)]=37 μM. This experiment was performed at least twice with wild-type hRI and each variant.

[6] = biological target: T5, C330A human ribonuclease inhibitor (human, UniProt P13489 2-461, limits assumed); test: as above
T5 construct: also called C330A hRI
T5 sequence: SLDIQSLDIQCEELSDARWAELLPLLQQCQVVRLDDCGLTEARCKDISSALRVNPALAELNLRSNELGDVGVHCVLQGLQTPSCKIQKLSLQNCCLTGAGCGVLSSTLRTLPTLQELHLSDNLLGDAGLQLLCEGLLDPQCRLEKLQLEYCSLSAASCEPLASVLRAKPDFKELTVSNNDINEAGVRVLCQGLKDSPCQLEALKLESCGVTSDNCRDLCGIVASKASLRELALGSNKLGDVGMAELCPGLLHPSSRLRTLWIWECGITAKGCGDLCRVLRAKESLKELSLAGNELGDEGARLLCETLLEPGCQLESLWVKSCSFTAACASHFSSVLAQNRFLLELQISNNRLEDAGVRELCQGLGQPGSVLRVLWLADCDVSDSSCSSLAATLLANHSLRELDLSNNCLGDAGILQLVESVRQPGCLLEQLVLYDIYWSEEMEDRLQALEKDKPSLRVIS
Description: as §1

Measured: binding result

B1: C95A/C96A/C329A/C330A human ribonuclease inhibitor (other)
chain: SLDIQSLDIQCEELSDARWAELLPLLQQCQVVRLDDCGLTEARCKDISSALRVNPALAELNLRSNELGDVGVHCVLQGLQTPSCKIQKLSLQNAALTGAGCGVLSSTLRTLPTLQELHLSDNLLGDAGLQLLCEGLLDPQCRLEKLQLEYCSLSAASCEPLASVLRAKPDFKELTVSNNDINEAGVRVLCQGLKDSPCQLEALKLESCGVTSDNCRDLCGIVASKASLRELALGSNKLGDVGMAELCPGLLHPSSRLRTLWIWECGITAKGCGDLCRVLRAKESLKELSLAGNELGDEGARLLCETLLEPGCQLESLWVKSCSFTAAAASHFSSVLAQNRFLLELQISNNRLEDAGVRELCQGLGQPGSVLRVLWLADCDVSDSSCSSLAATLLANHSLRELDLSNNCLGDAGILQLVESVRQPGCLLEQLVLYDIYWSEEMEDRLQALEKDKPSLRVIS
notes: Variant with all four substitutions; also called C95A/C96A/C329A/C330A hRI
binds: [1]

B2
not listed: [1]
binds: all other assays above
